# Results taken from article PMC4130638, “Structure of a Stapled Peptide Antagonist Bound to Nutlin-Resistant Mdm2” (PLoS ONE, 2014).
# Positions of bridges follow the written chain, without caps; N, C: chain ends. Non-standard residues stand in square brackets, D forms with d. S8 = C=CCCCCCC[C@](C)(N)C(=O)O; S5 = C=CCCC[C@](C)(N)C(=O)O; FAM = carboxyfluorescein
# Tests used:
# [1] = biological target: T1, Mdm2 (amino acids 6-125), wild type (UniProt Q00987 6-125); assay: not stated; Kds told in the discussion of the structures without method, construct or citation
# T1 construct: Cloned in pGEX-6P-1; also called Mdm2 (6-125); wild-type Mdm2; source: E. coli BL21(DE3) pLysS, purified (GSTrap, on-column PreScission cleavage, Resource S cation exchange)
# [2] = biological target: T1, Mdm2 (amino acids 6-125), wild type; assay: fluorescence polarisation; competitive fluorescence anisotropy: M06 titrated against a constant 150 nM Mdm2 (6-125) wild type or M62A and 50 nM FAM-12-1 peptide; PBS pH 7.4, 3% DMSO, 0.1% Tween-20; apparent Kd; 3-5 titrations; conditions: both partners purified
# [3] = biological target: T2, Mdm2-M62A (amino acids 6-125) (UniProt Q00987 6-125, M62A); assay: as above; conditions: both partners purified
# T2 construct: Made from the wild-type pGEX-6P-1 construct by QuickChange mutagenesis; also called Nutlin-resistant Mdm2; mutant Mdm2 (6-125); source: E. coli BL21(DE3) pLysS, purified (GSTrap, on-column PreScission cleavage, Resource S cation exchange)
Binder,Kd [1] [µM],Kd [2] [µM],Kd [3] [µM],binding result [2],binding result [3]
Ac-TSF[S5]EYWYLL[S8]-NH2 (staple 4-11; SMILES CC(=O)N[C@H](C(=O)N[C@@H](CO)C(=O)N[C@@H](Cc1ccccc1)C(=O)N[C@@]1(C)CCCC=CCCCCCC[C@@](C)(C(N)=O)NC(=O)[C@H](CC(C)C)NC(=O)[C@H](CC(C)C)NC(=O)[C@H](Cc2ccc(O)cc2)NC(=O)[C@H](Cc2c[nH]c3ccccc23)NC(=O)[C@H](Cc2ccc(O)cc2)NC(=O)[C@H](CCC(=O)O)NC1=O)[C@@H](C)O) [M06 stapled peptide],0.128,0.107 ± 0.0479,0.0631 ± 0.0178,,
"{FAM}-RFMDYWEGL-NH2 (12-1 peptide, tracer of the fluorescence anisotropy assay) [carboxyfluorescein (FAM) labelled 12-1 peptide]",,,,binds,binds
